In publication PMC12016152:

How the values were obtained:
[1] = surface biotinylation, western blot, CHO (n = 2); settings: glycan lost; control: ASIC1a + ASIC4WT
[2] = whole-cell patch clamp, pH 5.0 peak current density, CHO; settings: glycan lost; control: ASIC1a + ASIC4WT
[3] = amygdala cell surface fraction, western blot, Asic4-/- mice; settings: glycan lost; control: AAV-DIO-ASIC4WT rescue

| Protein | other: surface expression of co-expressed ASIC1a [1] | other: channel current of co-expressed ASIC1a [2] | other: surface expression of ASIC1a in vivo [3] |
| --- | --- | --- | --- |
| ASIC4: ASIC4N376A (protein) parent chain: MPIEIVCKIKFAEEDAKPKEKEAGDEQSLLGAAQGPAAPRDLATFASTSTLHGLGRACGPGPHGLRRTLWALALLTSLAAFLYQAASLARGYLTRPHLVAMDPAAPAPVAGFPAVTLCNINRFRHSALSDADIFHLANLTGLPPKDRDGHRAAGLRYPEPDMVDILNRTGHQLADMLKSCNFSGHHCSASNFSVVYTRYGKCYTFNADPQSSLPSRAGGMGSGLEIMLDIQQEEYLPIWRETNETSFEAGIRVQIHSQEEPPYIHQLGFGVSPGFQTFVSCQEQRLTYLPQPWGNCRAESELREPELQGYSAYSVSACRLRCEKEAVLQRCHCRMVHMPGNETICPPNIYIECADHTLDSLGGGSEGPCFCPTPCNLTRYGKEISMVKIPNRGSARYLARKYNRNETYIRENFLVLDVFFEALTSEAMEQQAAYGLSALLGDLGGQMGLFIGASILTLLEILDYIYEVSWDRLKRVWRRPKTPLRTSTGGISTLGLQELKEQSPCPSRGRAEGGGASSLLPNHHHPHGPPGSLFEDFAC | no change | no change |  |
| ASIC4: ASIC4N341A (protein) parent chain: MPIEIVCKIKFAEEDAKPKEKEAGDEQSLLGAAQGPAAPRDLATFASTSTLHGLGRACGPGPHGLRRTLWALALLTSLAAFLYQAASLARGYLTRPHLVAMDPAAPAPVAGFPAVTLCNINRFRHSALSDADIFHLANLTGLPPKDRDGHRAAGLRYPEPDMVDILNRTGHQLADMLKSCNFSGHHCSASNFSVVYTRYGKCYTFNADPQSSLPSRAGGMGSGLEIMLDIQQEEYLPIWRETNETSFEAGIRVQIHSQEEPPYIHQLGFGVSPGFQTFVSCQEQRLTYLPQPWGNCRAESELREPELQGYSAYSVSACRLRCEKEAVLQRCHCRMVHMPGNETICPPNIYIECADHTLDSLGGGSEGPCFCPTPCNLTRYGKEISMVKIPNRGSARYLARKYNRNETYIRENFLVLDVFFEALTSEAMEQQAAYGLSALLGDLGGQMGLFIGASILTLLEILDYIYEVSWDRLKRVWRRPKTPLRTSTGGISTLGLQELKEQSPCPSRGRAEGGGASSLLPNHHHPHGPPGSLFEDFAC | increases | increases |  |
| ASIC4: ASIC4N191A (protein) parent chain: MPIEIVCKIKFAEEDAKPKEKEAGDEQSLLGAAQGPAAPRDLATFASTSTLHGLGRACGPGPHGLRRTLWALALLTSLAAFLYQAASLARGYLTRPHLVAMDPAAPAPVAGFPAVTLCNINRFRHSALSDADIFHLANLTGLPPKDRDGHRAAGLRYPEPDMVDILNRTGHQLADMLKSCNFSGHHCSASNFSVVYTRYGKCYTFNADPQSSLPSRAGGMGSGLEIMLDIQQEEYLPIWRETNETSFEAGIRVQIHSQEEPPYIHQLGFGVSPGFQTFVSCQEQRLTYLPQPWGNCRAESELREPELQGYSAYSVSACRLRCEKEAVLQRCHCRMVHMPGNETICPPNIYIECADHTLDSLGGGSEGPCFCPTPCNLTRYGKEISMVKIPNRGSARYLARKYNRNETYIRENFLVLDVFFEALTSEAMEQQAAYGLSALLGDLGGQMGLFIGASILTLLEILDYIYEVSWDRLKRVWRRPKTPLRTSTGGISTLGLQELKEQSPCPSRGRAEGGGASSLLPNHHHPHGPPGSLFEDFAC | increases | increases | increases |
| ASIC4: ASIC4N243A (protein) parent chain: MPIEIVCKIKFAEEDAKPKEKEAGDEQSLLGAAQGPAAPRDLATFASTSTLHGLGRACGPGPHGLRRTLWALALLTSLAAFLYQAASLARGYLTRPHLVAMDPAAPAPVAGFPAVTLCNINRFRHSALSDADIFHLANLTGLPPKDRDGHRAAGLRYPEPDMVDILNRTGHQLADMLKSCNFSGHHCSASNFSVVYTRYGKCYTFNADPQSSLPSRAGGMGSGLEIMLDIQQEEYLPIWRETNETSFEAGIRVQIHSQEEPPYIHQLGFGVSPGFQTFVSCQEQRLTYLPQPWGNCRAESELREPELQGYSAYSVSACRLRCEKEAVLQRCHCRMVHMPGNETICPPNIYIECADHTLDSLGGGSEGPCFCPTPCNLTRYGKEISMVKIPNRGSARYLARKYNRNETYIRENFLVLDVFFEALTSEAMEQQAAYGLSALLGDLGGQMGLFIGASILTLLEILDYIYEVSWDRLKRVWRRPKTPLRTSTGGISTLGLQELKEQSPCPSRGRAEGGGASSLLPNHHHPHGPPGSLFEDFAC | no change | no change | no change |
| ASIC4: ASIC4N191A, N243A, N341A, N376A (protein) parent chain: MPIEIVCKIKFAEEDAKPKEKEAGDEQSLLGAAQGPAAPRDLATFASTSTLHGLGRACGPGPHGLRRTLWALALLTSLAAFLYQAASLARGYLTRPHLVAMDPAAPAPVAGFPAVTLCNINRFRHSALSDADIFHLANLTGLPPKDRDGHRAAGLRYPEPDMVDILNRTGHQLADMLKSCNFSGHHCSASNFSVVYTRYGKCYTFNADPQSSLPSRAGGMGSGLEIMLDIQQEEYLPIWRETNETSFEAGIRVQIHSQEEPPYIHQLGFGVSPGFQTFVSCQEQRLTYLPQPWGNCRAESELREPELQGYSAYSVSACRLRCEKEAVLQRCHCRMVHMPGNETICPPNIYIECADHTLDSLGGGSEGPCFCPTPCNLTRYGKEISMVKIPNRGSARYLARKYNRNETYIRENFLVLDVFFEALTSEAMEQQAAYGLSALLGDLGGQMGLFIGASILTLLEILDYIYEVSWDRLKRVWRRPKTPLRTSTGGISTLGLQELKEQSPCPSRGRAEGGGASSLLPNHHHPHGPPGSLFEDFAC | increases | increases |  |
